Each substance was assayed against HLA-A*02:01 (Homo sapiens, UniProt P04439, D140Y/D185E/D98H/E176V/E277Q/G131W/G231S/I119V/I121R/I166T/I218V/L300P/L318F/N151K/N90K/P208A/P217A/Q86G/Q94H/R138H/R169H/T345S) (assay: MHC binding assay, UV-ligand exchange with beta2m ELISA (exchange yield), HLA-A*02). Conditions: binding to HLA-A*02 ranged by peptide exchange yield.
From the text: Candidate peptides for T cell based therapies according to the present invention were further tested for their MHC binding capacity (affinity). The individual peptide-MHC complexes were produced by UV-ligand exchange, where a UV-sensitive peptide is cleaved upon UV-irradiation, and exchanged with the peptide of interest as analyzed. Only peptide candidates that can effectively bind and stabilize the peptide-receptive MHC molecules prevent dissociation of the MHC complexes. To determine the yield of the exchange reaction, an ELISA was performed based on the detection of the light chain (β2m) of stabilized MHC complexes. The assay was performed as generally described in Rodenko et al. (Rodenko et al., 2006).
96 well MAXISorp plates (NUNC) were coated over night with 2 ug/ml streptavidin in PBS at room temperature, washed 4× and blocked for 1 h at 37° C. in 2% BSA containing blocking buffer. […] Peptide-MHC monomers of the UV-exchange reaction were diluted 100 fold in blocking buffer. Samples were incubated for 1 h at 37° C., washed four times, incubated with 2 ug/ml HRP conjugated anti-β2m for 1h at 37° C., washed again and detected with TMB solution that is stopped with […]. Absorption was measured at 450 nm. Candidate peptides that show a high exchange yield (preferably higher than 50%, most preferred higher than 75%) are generally preferred for a generation and production of antibodies or fragments thereof, and/or T cell receptors or fragments thereof, as they show sufficient avidity to the MHC molecules and prevent dissociation of the MHC complexes.

Q: For “37 (ALINDILGELVKL; listed as Homo sapiens) [compound 37]”, which “Peptide exchange (MHC class I binding score)” value (“Peptide exchange” below) is on record?
A: Its value is “+++ (50%-75% = +++)”.

Q: With “88 (ILLNTEDLASL; listed as Homo sapiens) [compound 88]” as the substance, how does the “Peptide exchange” value read?
A: Its value is “+++ (50%-75% = +++)”.

Q: For “65 (KLDGICWQV; listed as Homo sapiens) [compound 65]”, which “Peptide exchange” value is on record?
A: The value was “+++ (50%-75% = +++)”.

Q: Which “Peptide exchange” value does the source give for “63 (TLSSERDFAL; listed as Homo sapiens) [compound 63]” here?
A: The value was “+ (<20% = +)”.

Q: With “334 (GRADALRVL; listed as Homo sapiens) [compound 334]” as the substance, how does the “Peptide exchange” value read?
A: Its value is “+++ (50%-75% = +++)”.

Q: With “92 (LLRGPPVARA; listed as Homo sapiens) [compound 92]” as the substance, how does the “Peptide exchange” value read?
A: The value was “++ (20%-49% = ++)”.

Q: For “67 (GVIETVTSL; listed as Homo sapiens) [compound 67]”, which “Peptide exchange” value is on record?
A: The value was “++ (20%-49% = ++)”.

Q: “85 (STLDGSLHAV; listed as Homo sapiens) [compound 85]” was tested. Which “Peptide exchange” value did it give?
A: Its value is “+++ (50%-75% = +++)”.

Q: “328 (SVDSAPAAV; listed as Homo sapiens) [compound 328]” was tested. Which “Peptide exchange” value did it give?
A: The value was “++ (20%-49% = ++)”.

Q: “56 (KILDLTRVL; listed as Homo sapiens) [compound 56]” was tested. Which “Peptide exchange” value did it give?
A: Its value is “++ (20%-49% = ++)”.

Q: Which “Peptide exchange” value does the source give for “58 (ALDDSLTSL; listed as Homo sapiens) [compound 58]” here?
A: The value was “++ (20%-49% = ++)”.

Q: “12 (GLIYEETRGV; listed as Homo sapiens) [compound 12]” was tested. Which “Peptide exchange” value did it give?
A: The value was “++ (20%-49% = ++)”.

Q: Which “Peptide exchange” value does the source give for “326 (SLLPLVWKI; listed as Homo sapiens) [compound 326]” here?
A: Its value is “+++ (50%-75% = +++)”.

Q: Which “Peptide exchange” value does the source give for “10 (KTLDVFNIIL; listed as Homo sapiens) [compound 10]” here?
A: The value was “++ (20%-49% = ++)”.

Q: “33 (LLLPLLPPLSPSLG; listed as Homo sapiens) [compound 33]” was tested. Which “Peptide exchange” value did it give?
A: Its value is “+++ (50%-75% = +++)”.

Q: With “69 (GIYDGILHSI; listed as Homo sapiens) [compound 69]” as the substance, how does the “Peptide exchange” value read?
A: Its value is “+++ (50%-75% = +++)”.

Q: “23 (AQTVVVIKA; listed as Homo sapiens) [compound 23]” was tested. Which “Peptide exchange” value did it give?
A: The value was “+ (<20% = +)”.

Q: For “3 (TLLGKQVTL; listed as Homo sapiens) [compound 3]”, which “Peptide exchange” value is on record?
A: Its value is “+++ (50%-75% = +++)”.

Q: For “21 (SLYHRVLLY; listed as Homo sapiens) [compound 21]”, which “Peptide exchange” value is on record?
A: Its value is “++++ (>=75% = ++++)”.

Q: Which “Peptide exchange” value does the source give for “14 (LLDHLSFINKI; listed as Homo sapiens) [compound 14]” here?
A: The value was “++ (20%-49% = ++)”.

Q: Which “Peptide exchange” value does the source give for “323 (ILSVVNSQL; listed as Homo sapiens) [compound 323]” here?
A: The value was “+++ (50%-75% = +++)”.

Q: For “39 (ALMAVVSGL; listed as Homo sapiens) [compound 39]”, which “Peptide exchange” value is on record?
A: Its value is “+++ (50%-75% = +++)”.

Q: How did the “Peptide exchange” value turn out when “64 (GLSSSSYEL; listed as Homo sapiens) [compound 64]” was run?
A: Its value is “++ (20%-49% = ++)”.

Q: With “75 (ILDNVKNLL; listed as Homo sapiens) [compound 75]” as the substance, how does the “Peptide exchange” value read?
A: The value was “+++ (50%-75% = +++)”.

Q: With “90 (GAVAEEVLSSI; listed as Homo sapiens) [compound 90]” as the substance, how does the “Peptide exchange” value read?
A: Its value is “+ (<20% = +)”.

Q: For “57 (VLISSTVRL; listed as Homo sapiens) [compound 57]”, which “Peptide exchange” value is on record?
A: Its value is “++ (20%-49% = ++)”.

Q: With “32 (ILADEAFFSV; listed as Homo sapiens) [compound 32]” as the substance, how does the “Peptide exchange” value read?
A: Its value is “+++ (50%-75% = +++)”.

Q: “18 (YVLNEEDLQKV; listed as Homo sapiens) [compound 18]” was tested. Which “Peptide exchange” value did it give?
A: Its value is “+++ (50%-75% = +++)”.

Q: “36 (KLYGIEIEV; listed as Homo sapiens) [compound 36]” was tested. Which “Peptide exchange” value did it give?
A: Its value is “++++ (>=75% = ++++)”.

Q: With “74 (ILDETLENV; listed as Homo sapiens) [compound 74]” as the substance, how does the “Peptide exchange” value read?
A: Its value is “++ (20%-49% = ++)”.

Q: For “333 (GTFLEGVAK; listed as Homo sapiens) [compound 333]”, which “Peptide exchange” value is on record?
A: The value was “+++ (50%-75% = +++)”.

Q: “71 (GLITVDIAL; listed as Homo sapiens) [compound 71]” was tested. Which “Peptide exchange” value did it give?
A: The value was “+++ (50%-75% = +++)”.

Q: How did the “Peptide exchange” value turn out when “11 (GVLKVFLENV; listed as Homo sapiens) [compound 11]” was run?
A: The value was “++ (20%-49% = ++)”.

Q: With “60 (FLIDTSASM; listed as Homo sapiens) [compound 60]” as the substance, how does the “Peptide exchange” value read?
A: Its value is “++ (20%-49% = ++)”.

Q: How did the “Peptide exchange” value turn out when “337 (KVLGKIEKV; listed as Homo sapiens) [compound 337]” was run?
A: The value was “+++ (50%-75% = +++)”.

Q: With “76 (ILLDESNFNHFL; listed as Homo sapiens) [compound 76]” as the substance, how does the “Peptide exchange” value read?
A: Its value is “+++ (50%-75% = +++)”.

Q: For “16 (HLYNNEEQV; listed as Homo sapiens) [compound 16]”, which “Peptide exchange” value is on record?
A: Its value is “++ (20%-49% = ++)”.

Q: With “72 (GMIGFQVLL; listed as Homo sapiens) [compound 72]” as the substance, how does the “Peptide exchange” value read?
A: The value was “+++ (50%-75% = +++)”.

Q: “1 (PLWGKVFYL; listed as Homo sapiens) [compound 1]” was tested. Which “Peptide exchange” value did it give?
A: Its value is “++ (20%-49% = ++)”.

Q: For “78 (LLWGHPRVA; listed as Homo sapiens) [compound 78]”, which “Peptide exchange” value is on record?
A: Its value is “+++ (50%-75% = +++)”.

Q: How did the “Peptide exchange” value turn out when “51 (LLLDGDFTL; listed as Homo sapiens) [compound 51]” was run?
A: The value was “+++ (50%-75% = +++)”.

Q: With “44 (GLLWQIIKV; listed as Homo sapiens) [compound 44]” as the substance, how does the “Peptide exchange” value read?
A: The value was “++ (20%-49% = ++)”.

Q: With “83 (ELLEYLPQL; listed as Homo sapiens) [compound 83]” as the substance, how does the “Peptide exchange” value read?
A: Its value is “+++ (50%-75% = +++)”.

Q: With “321 (SLWFKPEEL; listed as Homo sapiens) [compound 321]” as the substance, how does the “Peptide exchange” value read?
A: Its value is “+++ (50%-75% = +++)”.

Q: Which “Peptide exchange” value does the source give for “329 (FAWEPSFRDQV; listed as Homo sapiens) [compound 329]” here?
A: Its value is “++ (20%-49% = ++)”.

Q: With “59 (ALTKILAEL; listed as Homo sapiens) [compound 59]” as the substance, how does the “Peptide exchange” value read?
A: Its value is “+++ (50%-75% = +++)”.

Q: With “81 (VLFLGKLLV; listed as Homo sapiens) [compound 81]” as the substance, how does the “Peptide exchange” value read?
A: The value was “++ (20%-49% = ++)”.

Q: How did the “Peptide exchange” value turn out when “35 (YVLPKLYVKL; listed as Homo sapiens) [compound 35]” was run?
A: Its value is “++ (20%-49% = ++)”.

Q: “55 (IASAIVNEL; listed as Homo sapiens) [compound 55]” was tested. Which “Peptide exchange” value did it give?
A: The value was “++ (20%-49% = ++)”.

Q: Which “Peptide exchange” value does the source give for “46 (SLAKHGIVAL; listed as Homo sapiens) [compound 46]” here?
A: Its value is “+++ (50%-75% = +++)”.

Q: How did the “Peptide exchange” value turn out when “62 (SLFNQEVQI; listed as Homo sapiens) [compound 62]” was run?
A: Its value is “+++ (50%-75% = +++)”.

Q: For “31 (ALSDETKNNWEV; listed as Homo sapiens) [compound 31]”, which “Peptide exchange” value is on record?
A: The value was “++++ (>=75% = ++++)”.

Q: How did the “Peptide exchange” value turn out when “24 (FLWNGEDSAL; listed as Homo sapiens) [compound 24]” was run?
A: Its value is “+++ (50%-75% = +++)”.

Q: How did the “Peptide exchange” value turn out when “82 (VLLRVLIL; listed as Homo sapiens) [compound 82]” was run?
A: Its value is “++ (20%-49% = ++)”.

From patent US10130693B2, “Peptides, combination of peptides and scaffolds for use in immunotherapeutic treatment of various cancers” (Immatics Biotechnologies GmbH, priority 2015, dated 2018)
